The source of these data is PMC8491902, “Experimental and computational investigation of enzyme functional annotations uncovers misannotation in the EC 1.1.3.15 enzyme class” (PLoS Computational Biology, 2021).

By kcat is commonly meant the number of substrate molecules converted per active site and unit of time at saturation. A word on the kcat/Km: it is the turnover number divided by the Michaelis constant.

One data set addresses T1, B8MKR3 (Talaromyces stipitatus, UniProt B8MKR3).
T1 construct: gene TSTA_043820
T1 sequence (B8MKR3 1-496): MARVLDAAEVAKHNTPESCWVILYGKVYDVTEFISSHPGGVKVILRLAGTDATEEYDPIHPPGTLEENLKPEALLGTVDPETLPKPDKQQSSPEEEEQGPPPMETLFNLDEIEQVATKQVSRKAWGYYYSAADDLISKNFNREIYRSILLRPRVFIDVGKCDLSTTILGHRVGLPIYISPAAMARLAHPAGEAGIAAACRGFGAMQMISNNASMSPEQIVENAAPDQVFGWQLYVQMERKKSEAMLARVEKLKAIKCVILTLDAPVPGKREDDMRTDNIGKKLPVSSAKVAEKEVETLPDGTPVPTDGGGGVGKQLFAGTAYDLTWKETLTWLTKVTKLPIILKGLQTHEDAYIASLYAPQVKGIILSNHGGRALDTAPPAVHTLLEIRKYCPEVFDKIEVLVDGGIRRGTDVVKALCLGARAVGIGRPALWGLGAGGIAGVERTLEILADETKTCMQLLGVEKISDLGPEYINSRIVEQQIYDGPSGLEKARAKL
Briefly: cytochrome c reduction at […] nm. Conditions: 2 mM substrate; 0.1 mM cytochrome c; 20 mM HEPES pH 7.4. The data set is classed as biochemical.

In the next data set the target is T2, W6W585 (Rhizobium sp. CF080, UniProt W6W585).
T2 construct: gene PMI07_004712; full-length synthetic gene in pET21a, C-terminal linker and deca-His tag, soluble E. coli BL21(DE3) lysate
T2 sequence (W6W585 1-409): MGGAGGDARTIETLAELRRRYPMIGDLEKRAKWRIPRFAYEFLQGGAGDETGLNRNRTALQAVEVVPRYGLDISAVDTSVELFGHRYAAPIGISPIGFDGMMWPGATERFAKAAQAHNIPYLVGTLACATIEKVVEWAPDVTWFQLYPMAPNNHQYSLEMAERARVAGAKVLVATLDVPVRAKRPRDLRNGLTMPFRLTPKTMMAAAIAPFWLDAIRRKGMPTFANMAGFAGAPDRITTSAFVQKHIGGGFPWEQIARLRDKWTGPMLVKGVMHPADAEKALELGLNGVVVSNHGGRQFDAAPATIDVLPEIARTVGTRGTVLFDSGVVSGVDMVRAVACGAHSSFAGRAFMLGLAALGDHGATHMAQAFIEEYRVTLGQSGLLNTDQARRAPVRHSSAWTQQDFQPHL
Briefly: Amplex Red peroxide assay. Type of data set: biochemical. Conditions: […] DL-mandelate; […] HEPES pH […]; HRP; lysate.

For another data set, the target named is T3, C9Y9E7 (Curvibacter putative symbiont of Hydra magnipapillata, UniProt C9Y9E7).
T3 construct: gene lldD; full-length synthetic gene in pET21a, C-terminal linker and deca-His tag, soluble E. coli BL21(DE3) lysate
T3 sequence (C9Y9E7 1-381): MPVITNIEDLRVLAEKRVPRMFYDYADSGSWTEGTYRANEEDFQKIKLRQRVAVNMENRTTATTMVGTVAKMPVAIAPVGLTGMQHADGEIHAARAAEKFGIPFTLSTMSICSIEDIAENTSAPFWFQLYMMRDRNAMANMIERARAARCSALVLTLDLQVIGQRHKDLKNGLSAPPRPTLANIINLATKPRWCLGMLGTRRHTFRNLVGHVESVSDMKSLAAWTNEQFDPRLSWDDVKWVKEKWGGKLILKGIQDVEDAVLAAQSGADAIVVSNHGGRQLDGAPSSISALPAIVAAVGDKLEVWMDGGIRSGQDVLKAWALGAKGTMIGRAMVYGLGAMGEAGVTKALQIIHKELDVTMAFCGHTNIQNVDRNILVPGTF
Nature of the data set: Amplex Red peroxide assay. Conditions: […] DL-mandelate; […] HEPES pH […]; HRP; lysate. Type of data set: biochemical.

Another data set concerns the target T4, E6SCX5 (Intrasporangium calvum, UniProt E6SCX5).
T4 construct: gene Intca_2052; full-length synthetic gene in pET21a, C-terminal linker and deca-His tag, soluble E. coli BL21(DE3) lysate
T4 sequence (E6SCX5 1-415): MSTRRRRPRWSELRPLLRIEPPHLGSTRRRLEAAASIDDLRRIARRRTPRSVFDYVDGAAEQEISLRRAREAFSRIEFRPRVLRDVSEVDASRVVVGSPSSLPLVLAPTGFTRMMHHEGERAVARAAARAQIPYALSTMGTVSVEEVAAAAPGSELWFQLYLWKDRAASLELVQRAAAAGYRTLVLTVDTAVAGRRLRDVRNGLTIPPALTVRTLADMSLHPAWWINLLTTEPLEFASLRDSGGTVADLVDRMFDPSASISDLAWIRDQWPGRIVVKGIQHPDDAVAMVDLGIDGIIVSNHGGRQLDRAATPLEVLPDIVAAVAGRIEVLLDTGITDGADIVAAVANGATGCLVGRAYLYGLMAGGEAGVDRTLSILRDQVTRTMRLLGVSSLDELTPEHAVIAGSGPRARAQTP
Nature of the data set: Amplex Red peroxide assay. The data set is classed as biochemical. Conditions: 1 mM DL-mandelate; 20 mM HEPES pH 7.4; HRP; lysate.

Substrate in data set [1]: C[C@@H](O)C(=O)O
Briefly: purified protein. Conditions: DCPIP + PMS as electron acceptor, 20 mM HEPES pH 7.4, 25 °C.

Substrate in data set [2]: O=P(O)(O)OC[C@H](O)CO
Nature of the data set: purified protein. Type of data set: biochemical, Caloramator mitchellensis. Conditions: DCPIP + PMS as electron acceptor, 20 mM HEPES pH 7.4, 25 °C.

As to `C[C@H](O)C(=O)O` [L-lactate], the “cytochrome c reduction at 550 nm” value on B8MKR3 is reported as “the B8MKR3 protein displayed cytochrome b2 L-lactate dehydrogenase activity”.

`O=C(O)C(O)c1ccccc1` (racemic) [DL-mandelate]: the “Amplex Red peroxide assay” value on W6W585, on C9Y9E7 and on E6SCX5 was “the four proteins display a high activity with mandelate” in each case.

B1: D4MUV9 (Anaerostipes hadrus) (protein)
chain: MSEYQYNKVTPEMIEKFKEIAPKRVLVGDEINEDFTHDEMAIYGKARPEVLVEATSTEEVAAVVKLCNENKIPVTPSGARTGLVGGAVSIGGGVMISLTKMNKILGYDKENFVVKIQSGVLLNDLAQDAEKQGLLYPPDPGEKFATVGGNVATNAGGMRAVKYGCTRDYVRAMTVVLPTGEIVKLGATVSKTSSGYSLLNLMIGSEGTLGIITELTLKVIPAPKSVISLIIPYENLEDCIATVPQFFMHHLAPQALEFMEKEVVMDTEKFLGKQVYPKELEGTEIGAYLLATFDGNSEEQLEDIIEQASEVVLEAGAIDVLVADTPALKKDAWAVRGALLEAIEADTVLLDECDVVVPTNKIAEFLTYTKSLEAEADFRVKSFGHAGDGNLHIYTCSNDMEEGEFKKQVAVFMDKVYAKATEFGGMISGEHGIGHGKMDYLAESLGPVQMRIMEGVKEVFDPNMILNPGKICYKL
With B1, in “purified protein [1]”, the Km was 0.40 +/- 0.04 x 10^-3 M, the catalytic constant (kcat) worked out at 5.18 s⁻¹ and the kcat/Km was found to be 13100 M⁻¹ s⁻¹.

B2: A0A0R3K2G2 (Caloramator mitchellensis) (protein)
chain: MFDVAIIGAGVIGCSIARELSKYNLNVALIEKENDVGNVTTKANSAIIHAGYDAKPGTLKGKLNAKGNLMFDELCRELEVPFKRVGSLVLAFDDDEMKTLGKLYEQGIQNGVPELYILSKEKVLEMDPNISDNIKGALYAKTGGIIGPWEFTIALAENAVENGVNIFLSNEVVDIEKKDFGYRIITNKDTYDTKYVVNCAGLYADKINNMVSNNKMEIIPRRGQYYLLDKTVGNLVKYVIFQCPSKLGKGVLVTPTVHGNLLIGPDAEDLIDKTALNTTSEGLNFIVEVARRSVKTLPLNMAITNFAGLRARTERDDFIIEEAVDAKGFINVAGIESPGLSSAPAISLYVIDILKNIAKKIEKKENFNPYRRAIPKFIELSEDEKNELVKKDKRFGKIICRCESITEGEIVSAIHRNVGARTVDAVKRRVRAGMGRCQGGFCSPRVIEILARELGVEMTEIEKDHEGSYILTGPTKSEVQ
With B2, in the data set “purified protein [2]”, the Km is recorded as 1.97 +/- 0.23 x 10^-3 M, the kcat worked out at 0.242 s⁻¹ and the kcat/Km came out at 123 M⁻¹ s⁻¹.
